Data as given in PMC2839090.

Biological target: GST fused with the C-terminal variable region of LigB (LigBCtv; amino acids 1418-1889) (Leptospira interrogans serovar Pomona)
Assay: ITC

**Q.** Which Kd does the source give for “Human plasma fibronectin (natural protein)” here?
**A.** 8.55 µM
